Reference: the DeepSol protein solubility set

test: soluble on expression in E. coli; label from the status in PepcDB or PDB records

Row | Sequence | soluble on expression in E. coli
1 | MGSDKIHHHHHHMAIKATDLFKLVSLSYPSATDDGYFVQENRISEADNTYYQRICFVNHRGGTIAYGFDQKHDRHPLLSPDQQWLAFLSQASDKTTQVFLQAVNGGTAKQFSAEKEGVSYFGWQADSQALFIQTTVGAKPKKTDKQWPQPVTVSRVPYKLNGVGLLPEHVAYELRVQRLRQKTSRLVMGREHEFEVGAISPDGQTLAFTAERLPDDPNDFSQATYLLNLADQQVTMVNDQLPQAALSPEAFSADGKQLLLVGSDNHLPNVSQSHLWHYDLATKTLQDVADDIDFDIPGHVNGDFQQDLSEKVADFATADYYLTIGFDHGKTSLYAGGPDEQLTPLIGGRRHVTDYALTPDHHGVVFTESTMTVPSRLSYFDLATEEEHVIYDPNRRVTRDMGLVTPQTFNFQRDGFEIEGWYFPPQQATASHPAILYVHGGPAVGYGYTFFHEMQFLAA | not soluble
2 | MTMIMRSIIDSLEALFSSFFSSIAPNLYEVLNFHCKKHTGMNFAEATLKNPKLTYEFLVKFFDSEMAVDVLDYLLSNFLKKYSIRAYGILKSFKSGDNKKLIEVAKLYSKVMQNGGGKDRD | not soluble
3 | MSLIYQIAKEFDFCYGHRVWSQELNPDFSLDPCLSCRHLHGHQGKVIVHLESRELQRGMVTDFAHLNWFKRFIDEVLDHRFIIDIDDPLFPTLLPHFADKSALVWMEEGYARVDFERIKGESSPILELYESFVVVRFVPTSESIASWLLELLRSRIQPLGVKVSSVEFLETPKSRARVYNEGHHHHHH | soluble
4 | SNAMNVIRLKEDKFREALRLSEYAFQYKVDEDRLQQQITKMKESHEVYGIMEGENLAAKLHLIPFHIYIGKEKFKMGGVAGVATYPEYRRSGYVKELLQHSLQTMKKDGYTVSMLHPFAVSFYRKYGWELCANLLVCHMTKSDLVMKKQVNGTVKRFNKESHPEEVEKLYETFAELFSGMLVRNEKWWLQAVYDDLTLAIYYDENQTAAGYMLYKIENYKMTVEEFVPLHNEARNGLWNFICQHDSMIKDLEMTVSENEPLLYTLQEPRVKTEIKPYFMGRIVDVEQFLKQYELNWNNVQQEVILHITDSFAQWNNITVRIANHEITIIEEPIDKGIKLDINALSTILFGYRRPLELNELELISGSEEEIRAFESVVPVRKPFIYDFF | soluble
5 | MAVAANKRSVMTLFSSASDMYSHQVRIVLAEKGVSFEVELVDENNLPAELIELNPYKTVPTLVDRELALYDSKIIMEYLDERFPHPPLMPVYPVARGNSRLMIYRIERNWYSLAEKVVNGSPEVAENARNKLRNDLLTLGPVFAEFEYFMSEEFSLIDCYLAPLLWRLPVLGIDLIGPGSKELKVYMNRVFERDSFLASLTEAEREMRLAR | not soluble
6 | MKIIDEHTFEGKGYHPFLITDRWQVAYLNYAEAESLEQIEKLDIHHQTDEVFILLQGKAALIGASVTDQNITYDVVNMQPGIVYNIRREVWHKIAMQPGSQVLIIENNDTHLNDFEFFELTESQKSQLRECVTKIVSLTEN | not soluble
7 | SSIRFYLAPNDADFTVYYTGTDGNWYETKATYKKVSVKKYEVTLPEITIGGAAEIEFKGVHRGPPNTVISAKFDVVGGTTQPEPEPDPAPEPQPAPEPEPGTSVNPAAPTAVDPATAPSCVEKGYINIPDTKGVDYFIGGELKHAGQHFYEGQKASVKVTAKPQNGYQFAAGAKTEWSFDFSGEVKDCSDSSEDPKPAAVEGRHFDAIGHEFAVEADPVDPTKPNAFTAKVTAESHMKYATVRIETDATFLDPQKYNLTLDQIEPGVTLQKRNVNIGNGFITMDVVPVKDGKPVDSAVVPKDAVFTFTNNLSENKNLKIALDVYGANKSTPKPPDIISPPDGAQWVHGRVPNPPMPKRCGLRIAVVADLSTSLKYADSNGFDESKKAANALIDSLAGTPAELGIYNFAGGAPRNPAGSTYGQNPPYISLQSDDGVSRAKSIVSNWNGNGSTNWEAGLKQVAAGNYDVVYFITDGMPTYSSKAPQLGLGGEFVQESALNQAIDAANELKAAGTRVVPIMVDLTVGGKNAQHTTVTQDLVLKNVRFWKRGTSNSEPGLYFQFTNKYVDAASYVGDDTTANFEIAYKNGGFKVWERTSRGRNIDVTRDQSKWTYGPREVKTMGEDISGTGDTIRVEQYSQLAAQMKKIGEELALRCNGVVKVKKRIVDENGRAIEDGVPGWEFTLSAGGQDIIDPGNGDRVRKSLKATSSANEDRGTASWNIMSEQEQQLTLVETQQPGFNLYKRNDKNAVCTETRDGVMKPIEVTNDGEFGFKVKMRAKDKKLSSVSCVVDNYKQPETPPGKLTFKKAQYNGDKIEEIPGLGGATFEIYPSKGDQPDYSAEALYTIKPGQESIEVKTTGTFFLVETKAPKGLNLLAQPVKFEISVDETTKKYKISVGSTSSGQVQAKGEGDKMILTVADTTAGELPKTGG | not soluble
8 | MPLTPADVHNVAFSKPPIGKRGYNEDEVDAFLDLVENELTRLIEENSDLRQRINELDQELAAGGGAGVTPQATQAIPAYEPEPGKPAPAAVSAGMNEEQALKAARVLSLAQDTADRLTNTAKAESDKMLADARANAEQILGEARHTADATVAEARQRADAMLADAQSRSEAQLRQAQEKADALQADAERKHSEIMGTINQQRAVLEGRLEQLRTFEREYRTRLKTYLESQLEELGQRGSAAPVDSNADAGGFDQFNRGKN | soluble
9 | MDNEKGLLIVLSGPSGVGKGTVRKRIFEDPSTSYKYSISMTTRQMREGEVDGVDYFFKTRDAFEALIKDDQFIEYAEYVGNYYGTPVQYVKDTMDEGHDVFLEIEVEGAKQVRKKFPDALFIFLAPPSLEHLRERLVGRGTESDEKIQSRINEARKEVEMMNLYDYVVVNDEVELAKNRIQCIVEAEHLKRERVEAKYRKMILEAKK | soluble
10 | MKRIILSIVWGLLTGWAAVPCLWAQSRTGTADREIWVKTLVRLADPVLSNLANETLKKEMPYESLAPNRQRFSYLEAVGRTVCGIAPWLELGEDDTPEGQLRKKYIELTVKGISNAVNPSSPDYLIFGEPSQPLVDAAFLAEGLLRAPKQLWGNLSPAARKQVVTELKRSRVIKPNESNWLLFASIVEAALQEFTGECDTTRLNYGVRKFRDLWYKGDAQYGDGAEFHLDYYNSFVIHPMLTDVLVVMQKHRMPESEFLNVQQKRLGRYAEQLERFISPEGTYPVIGRSIVYRTGVFHALGQAALLHLLPQQIVPAQVRCGMTKVIENQFRSAANFDTKGWLKIGFSGNQVQMSESYINTGSTYLCLTGFLPLGLPADDPFWSAPPAEWTNLKAWSGKEMPADHSLLEHHHHHH | not soluble
11 | GYQCQHNLNYWRFGDYLGIGCGSHGKLSFADGRIIRTTKVKHPRGYLAAYQNMVKPYLHTEQLVADEDRPFEFFMNRFRLMEACPKQDYVDTTGLPLSTIQDTIDWALEMGYLSETETHWQITEKGKLFLNDLLEAFMAEEDEE | not soluble
12 | MAVRKLWKTVVQLFSKSKSEECNTEAGTMEVSFLKYGVRGLNADCSYVKSQCIKLSECECLYTFASDVCKEDFHNSEEMKVFVVQHSQEMVDGTDLFVHAEESV | not soluble
13 | MGGVFSSASSNQAQITGILQELERTRLEREIALAHLQERRRIAFKIAEEREKFNWIACGGSLVVVLSALSSFHHKNLLHVIPIFPMASFIGYKAHFCYGDQLKKISETSTQLLEESVDALVPLPPTIADVRSRSKQIKEEESSNY | not soluble
14 | MALTDRLLDAWYKGHPALTLLRPLESLYRRVVDGKRAKFLAGEGDIYRAPVPVIVVGNITIGGTGKTPLILWMIEHCQRKGLRVGVVSRGYGAKPPSLPWRVQPDQSASEAGDEPLLIVQRSGVPLMIDPDRSRAVQALLAAEPLDLILSDDGLQHYRLARDLELVLIDAARGLGNRRCLPAGPLREPVERLSSVDALLYNGATADRDDGYAFTLKPSALINLRSGERQPVSYFPAGQALHAVAGIGNPQRFFNTLEGLHWRPVTHAFADHALYSVQALTFTPALPLVMTEKDAVKCRAFAADDWWYLAVDAVPSDAFVGWFDEQLLRLSPLEHHHHHH | not soluble
15 | KFGGINETYLPPNNTVRTAQASFDENFPHFRTEPIKLVITGATNQQLVDVYQQANKVEGLTDRFKPSSATKDGTTVLSAGIENREDNAKVVEQLRAIDAPEGVSVYIGGIPAMEVESIEALFDKLP | not soluble
16 | MAGDPMIEVIGVRFKKAGKIYYFGPNGIEIKKGQNVIVETARGIEFGECVIGIRKISEEDIVAPLKSVLRLATEEDINKHKENKAKETEAFEICLKKIEEHNLVMKLIDVEYTFDNNKVIFYFTAEGRVDFRELVKDLATIFKTRIELRQIGVRDEAKMIGGLGPCGRPLCCSTFLGDFASVSIKMAKEQSLSLNPTKISGICGRLMCCLNYEQSTYEEIRKELPRVGSVVETELGKGEVVGNNVLKELVRVKLPRKNEEIIQDFKMYDVKLISGSYEGEVEDTNIRLEITDEADKALIKNLIKDNLEHHHHHH | soluble
17 | MSLKNIVFDIGNVLLKFTPVEFLKSKYKDDKLVEALYENVFKSNEWVELDRGTITEEEATCRFCKRDPHNAKYIREVMETWNEMHVPVEGTSELMKELREKGYKIYLLSNYHLKAFKLISDKYDFIRDVDGGIISSKVKLLKPELEIYKALTNSCGIKPEESIFIDDREENVEAAIKLGFNGIVFKDAYELKGKFDELGIAIEGHHHHHH | soluble
18 | GMELKSAEEKSLYYRNKIKEVIDEVGKVVVGQKYMINRLLIGICTGGHILLEGVPGLAKTLSVNTLAKTMDLDFHRIQFTPDLLPSDLIGTMIYNQHKGNFEVKKGPVFSNFILADEVNRSPAKVQSALLECMQEKQVTIGDTTYPLDNPFLVLATQNPVEQEGTYPLPEAQVDRFMMKIHLTYLDKESELEVMRRVSNMNFNYQVQKIVSKNDVLEIRNEINKVTISESLEKYIIELVFATRFPAEYGLEAEASYILYGASTRAAINLNRVAKAMAFFNNRDYVLPEDIKEVAYDILNHRIILNYEAEAEGISTRQIIETILRKVNITKA | soluble
19 | MTIKEDLGRRIKAERNRKQLTQSLLCGDETKLTIRQLQRIEGGQSLPTLEKLEFIADRLGTKIADLLEGSDIQLPDDYWELKGQIVKFPTYADKERLQQKQELIEEIYDKYFDILPEDELLFLDLSENILDSFHEKDIPNIEEIYDDAFEQVLKKETFAFNDYLYMSYFLQKCGKTADYDQTTFKLLEQKLLKQELTVDELYNIELLIAVMEASGVYALHNDYQNLLPLMKKAQRIIDKAQLHTYKPPLLELEAKYYVKVVKDKKKAKELYQQALVMGEVLGDPVIIADVKMEMANDGID | not soluble
20 | AHHHHHHGSKFEELNEKIKKVYGKVRTIDDFHWHISDNLIHGIHKKSGLRLEIRIAESKEAADKIAQKKEPGNLMVIVVPGKETFYVNNGAFVLALKFLRSTIQDISDHIVWAGFKVVERDGALEQEDIYEYLGGRLIEHIKSGMVNGKDYIFWQFYKCEHCGKYVDIENLVRHMKTHGEDVKEWSEEKYEVLELSFEDKKVYNKFGKEVPLEEFVEETQDFIKEVFES | soluble
21 | MPPPNKRQKHARICGFMGTLARKKKEIEQQEALMKLHNLPLTYTEDQYKIVKEESTIYKNRFETAAAKNVELLKATDELKKELEFLKRQPGNQFKVDKKLKSEIDSAEEESKFYKNCFETTAAENVELLKVTDQLKKELEFLKAQQGNQFKVDMKIKSEMESATQSNLILLREKEMWKDRFNDVLSEKLALSARIRNVIGDRSESVEVPNDSNRDIWELREDLEMERSARRKAEEELKILKMTSSRGSMHISRDSTNQTPNEILLSMAIRLDSTSSN | not soluble
